Experimental findings from the supplement of paper PMC9112550, “Optimization of the antimicrobial peptide Bac7 by deep mutational scanning” (BMC Biology, 2022) are described below.
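Note: peptides expressed intracellularly from a pBAD plasmid library in pooled LB shake-flask culture, induced with 0.3% L-arabinose, DNA abundance read by NGS, three biological replicates, DESeq2 with apeglm shrinkage.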

The subject of the data set is Escherichia coli TOP10. Put plainly: shrunken log2 fold change of peptide-encoding DNA abundance (4.5 h post-induction vs induction); higher = less antimicrobial activity (less host growth inhibition). The conditions noted are these: time post-induction: 4.5 h; library: site-saturation at positions 5, 18, 19, 20.
Consider RRIRQRPPRLPRPRPRPDWSPRP, for which the “shrunken log2 fold change” value is -0.0861.
RRIRKRPPRLPRPRPRPTHKPRP: the “shrunken log2 fold change” value worked out at 0.658.
For the sequence RRIRARPPRLPRPRPRPMLIPRP, the “shrunken log2 fold change” value was determined as 0.0528.
For RRIRPRPPRLPRPRPRPCWTPRP, the “shrunken log2 fold change” value is -0.397.
In the case of RRIRFRPPRLPRPRPRPAQYPRP it was -0.574; in that of RRIRTRPPRLPRPRPRPRMIPRP, 0.113.
In the case of RRIRTRPPRLPRPRPRPWWAPRP it was -0.134; in that of RRIRNRPPRLPRPRPRPIVHPRP, -0.205.
For RRIRPRPPRLPRPRPRPTLSPRP the value was 0.421; for RRIRGRPPRLPRPRPRPSHGPRP, 0.487; for RRIRVRPPRLPRPRPRPAGVPRP, 0.283.
As to RRIRERPPRLPRPRPRPRVEPRP, the “shrunken log2 fold change” value is -0.182.
Turning to RRIRKRPPRLPRPRPRPDILPRP, the “shrunken log2 fold change” value was 0.0039.
Consider RRIRPRPPRLPRPRPRPEWSPRP, for which the “shrunken log2 fold change” value is -0.0838.
For RRIRKRPPRLPRPRPRPRLVPRP the value was 0.338.
For RRIRFRPPRLPRPRPRPRRRPRP, the “shrunken log2 fold change” value is 0.658.
For the sequence RRIRCRPPRLPRPRPRPTTTPRP, the “shrunken log2 fold change” value is -0.0127.
As for RRIRQRPPRLPRPRPRPNNEPRP, the “shrunken log2 fold change” value is -0.885.
As to RRIRERPPRLPRPRPRPFDNPRP, the “shrunken log2 fold change” value was 3.45.
As to RRIRLRPPRLPRPRPRPEATPRP, the “shrunken log2 fold change” value turned out to be 0.294.
RRIRMRPPRLPRPRPRPVNIPRP: the “shrunken log2 fold change” value is -0.361.
RRIRDRPPRLPRPRPRPHFGPRP: the “shrunken log2 fold change” value stood at 0.0884.
Regarding RRIRWRPPRLPRPRPRPVVMPRP, the “shrunken log2 fold change” value is -0.0601.
As to RRIRDRPPRLPRPRPRPFDTPRP, the “shrunken log2 fold change” value was -0.329.
For RRIRDRPPRLPRPRPRPVEDPRP, the “shrunken log2 fold change” value turned out to be 0.429.
For RRIRVRPPRLPRPRPRPKGDPRP, the “shrunken log2 fold change” value worked out at 0.275.
As for RRIRTRPPRLPRPRPRPYYHPRP, the “shrunken log2 fold change” value is -0.581.
On to RRIRARPPRLPRPRPRPYKHPRP, for which the “shrunken log2 fold change” value was -0.881.
Turning to RRIRQRPPRLPRPRPRPEKHPRP, the “shrunken log2 fold change” value was -0.214.
As for RRIRMRPPRLPRPRPRPHPTPRP, the “shrunken log2 fold change” value stood at 0.805.
For RRIRGRPPRLPRPRPRPRTMPRP, the “shrunken log2 fold change” value worked out at 0.539.
In the case of RRIRDRPPRLPRPRPRPLVMPRP, the “shrunken log2 fold change” value was 0.0567.
With RRIRPRPPRLPRPRPRPFMRPRP, the “shrunken log2 fold change” value was -0.1.
For the sequence RRIRERPPRLPRPRPRPPKLPRP, the “shrunken log2 fold change” value is -0.0377.
As to RRIRMRPPRLPRPRPRPMNKPRP, the “shrunken log2 fold change” value is -0.0775.
Consider RRIRDRPPRLPRPRPRPSLIPRP, for which the “shrunken log2 fold change” value is -0.156.
In the case of RRIRVRPPRLPRPRPRPWGQPRP, the “shrunken log2 fold change” value was -0.191.
For the sequence RRIRDRPPRLPRPRPRPITYPRP, the “shrunken log2 fold change” value amounted to 0.024.
As for RRIRYRPPRLPRPRPRPNDYPRP, the “shrunken log2 fold change” value was -0.0969.
In the case of RRIRDRPPRLPRPRPRPVWQPRP it was 0.63.
For RRIRYRPPRLPRPRPRPSNYPRP the value was -1.28; for RRIRYRPPRLPRPRPRPAIIPRP, -0.244.
For RRIRCRPPRLPRPRPRPNFDPRP, the “shrunken log2 fold change” value was -0.179.
As to RRIRCRPPRLPRPRPRPAMIPRP, the “shrunken log2 fold change” value was determined as 0.111.
For RRIRDRPPRLPRPRPRPNPRPRP, the “shrunken log2 fold change” value worked out at 0.0975.
On to RRIRTRPPRLPRPRPRPEPIPRP, for which the “shrunken log2 fold change” value is 0.226.
RRIRSRPPRLPRPRPRPQGEPRP: the “shrunken log2 fold change” value was -0.0953.
As for RRIRLRPPRLPRPRPRPKEIPRP, the “shrunken log2 fold change” value is -0.00121.
Turning to RRIRARPPRLPRPRPRPFVAPRP, the “shrunken log2 fold change” value is 0.254.
Consider RRIRDRPPRLPRPRPRPWADPRP, for which the “shrunken log2 fold change” value is -0.00486.
For RRIRQRPPRLPRPRPRPPPTPRP the value was 0.913; for RRIRARPPRLPRPRPRPYAHPRP, -0.149.
Regarding RRIRVRPPRLPRPRPRPTYLPRP, the “shrunken log2 fold change” value is 0.00624.
In the case of RRIRTRPPRLPRPRPRPKVTPRP it was -0.026; in that of RRIRMRPPRLPRPRPRPDTPPRP, 0.872; in that of RRIRGRPPRLPRPRPRPKNMPRP, 0.176.
For RRIRLRPPRLPRPRPRPTWWPRP, the “shrunken log2 fold change” value is 0.454.
For RRIRGRPPRLPRPRPRPSCKPRP, the “shrunken log2 fold change” value worked out at 0.319.
As to RRIRRRPPRLPRPRPRPLFYPRP, the “shrunken log2 fold change” value was -0.248.
Take RRIRRRPPRLPRPRPRPCCCPRP: the “shrunken log2 fold change” value amounted to 0.0202.
On to RRIRVRPPRLPRPRPRPRDDPRP, for which the “shrunken log2 fold change” value was -0.104.
In the case of RRIRDRPPRLPRPRPRPIHSPRP it was -0.00999; in that of RRIRTRPPRLPRPRPRPHHMPRP, -0.321; in that of RRIRDRPPRLPRPRPRPKCFPRP, 0.0766.
Consider RRIRWRPPRLPRPRPRPVCSPRP, for which the “shrunken log2 fold change” value came to 0.0102.
RRIRPRPPRLPRPRPRPMLFPRP: the “shrunken log2 fold change” value is -0.0744.
RRIRMRPPRLPRPRPRPFHSPRP: the “shrunken log2 fold change” value was -0.0121.
As for RRIRGRPPRLPRPRPRPWHSPRP, the “shrunken log2 fold change” value was 0.0143.
With RRIRWRPPRLPRPRPRPVECPRP, the “shrunken log2 fold change” value was 0.194.
For RRIRSRPPRLPRPRPRPQRQPRP, the “shrunken log2 fold change” value is 0.116.
In the case of RRIRCRPPRLPRPRPRPRCLPRP it was -0.32.
For RRIRYRPPRLPRPRPRPTFRPRP the value was -0.0396; for RRIRERPPRLPRPRPRPYRQPRP, -0.264; for RRIRRRPPRLPRPRPRPWEFPRP, 0.00288.
In the case of RRIRTRPPRLPRPRPRPMRCPRP it was -0.117; in that of RRIRERPPRLPRPRPRPVAGPRP, 0.246; in that of RRIRNRPPRLPRPRPRPDRDPRP, 0.0416.
Turning to RRIRNRPPRLPRPRPRPKVAPRP, the “shrunken log2 fold change” value was 0.0368.
RRIRLRPPRLPRPRPRPNAYPRP: the “shrunken log2 fold change” value came out at 0.0618.
Regarding RRIRIRPPRLPRPRPRPYGTPRP, the “shrunken log2 fold change” value is -0.894.
As to RRIRGRPPRLPRPRPRPWYAPRP, the “shrunken log2 fold change” value is -0.249.
With RRIRPRPPRLPRPRPRPPNQPRP, the “shrunken log2 fold change” value amounted to 0.282.
In the case of RRIRYRPPRLPRPRPRPKQTPRP it was 0.283.
Turning to RRIRPRPPRLPRPRPRPRSFPRP, the “shrunken log2 fold change” value came out at 0.0582.
For the sequence RRIRVRPPRLPRPRPRPESIPRP, the “shrunken log2 fold change” value was -0.149.
For RRIRIRPPRLPRPRPRPRCSPRP, the “shrunken log2 fold change” value is -0.137.
As for RRIRWRPPRLPRPRPRPNHWPRP, the “shrunken log2 fold change” value was -0.0748.
With RRIRMRPPRLPRPRPRPYLAPRP, the “shrunken log2 fold change” value is -0.0134.
With RRIRVRPPRLPRPRPRPNLHPRP, the “shrunken log2 fold change” value was -0.239.
Take RRIRIRPPRLPRPRPRPVDRPRP: the “shrunken log2 fold change” value was 0.0811.
In the case of RRIRYRPPRLPRPRPRPRKYPRP, the “shrunken log2 fold change” value is -0.333.
As to RRIRWRPPRLPRPRPRPPCFPRP, the “shrunken log2 fold change” value was found to be 0.108.
In the case of RRIRPRPPRLPRPRPRPERKPRP it was 0.489; in that of RRIRTRPPRLPRPRPRPCFMPRP, -0.153.
For the sequence RRIRCRPPRLPRPRPRPECKPRP, the “shrunken log2 fold change” value is -0.255.
Turning to RRIRLRPPRLPRPRPRPLGVPRP, the “shrunken log2 fold change” value was determined as 0.0325.
On to RRIRIRPPRLPRPRPRPCDFPRP, for which the “shrunken log2 fold change” value was -0.834.
In the case of RRIRNRPPRLPRPRPRPWATPRP, the “shrunken log2 fold change” value is -0.188.
For RRIRGRPPRLPRPRPRPPDDPRP the value was 1.34; for RRIRQRPPRLPRPRPRPTDSPRP, -0.0401.
In the case of RRIRKRPPRLPRPRPRPYLCPRP it was -0.0593; in that of RRIRQRPPRLPRPRPRPFQMPRP, -0.214; in that of RRIRFRPPRLPRPRPRPNPAPRP, 0.0261.
As to RRIRDRPPRLPRPRPRPFENPRP, the “shrunken log2 fold change” value was 0.115.
As for RRIRMRPPRLPRPRPRPACYPRP, the “shrunken log2 fold change” value was 0.223.
For RRIRLRPPRLPRPRPRPNAFPRP, the “shrunken log2 fold change” value stood at 0.00952.
Turning to RRIRNRPPRLPRPRPRPRWWPRP, the “shrunken log2 fold change” value is 0.159.
In the case of RRIRDRPPRLPRPRPRPDALPRP it was 0.306; in that of RRIRARPPRLPRPRPRPMFMPRP, 0.749; in that of RRIRDRPPRLPRPRPRPIPIPRP, -0.0457.
In the case of RRIRVRPPRLPRPRPRPWEQPRP, the “shrunken log2 fold change” value was -0.355.
Take RRIRGRPPRLPRPRPRPWPCPRP: the “shrunken log2 fold change” value was determined as 0.373.
On to RRIRQRPPRLPRPRPRPQVGPRP, for which the “shrunken log2 fold change” value is 0.331.
Take RRIRFRPPRLPRPRPRPNCRPRP: the “shrunken log2 fold change” value came to 0.0638.
On to RRIRYRPPRLPRPRPRPGTCPRP, for which the “shrunken log2 fold change” value is -0.729.
As to RRIRFRPPRLPRPRPRPCKIPRP, the “shrunken log2 fold change” value was -0.0538.
As for RRIRFRPPRLPRPRPRPTVNPRP, the “shrunken log2 fold change” value came to 2.04.
For RRIRIRPPRLPRPRPRPNTYPRP, the “shrunken log2 fold change” value was -1.02.
Turning to RRIRCRPPRLPRPRPRPAYLPRP, the “shrunken log2 fold change” value was -0.247.
On to RRIRARPPRLPRPRPRPFTKPRP, for which the “shrunken log2 fold change” value was -0.295.
Consider RRIRFRPPRLPRPRPRPMTHPRP, for which the “shrunken log2 fold change” value is -0.401.
As for RRIRWRPPRLPRPRPRPATYPRP, the “shrunken log2 fold change” value was determined as 0.0311.
In the case of RRIRNRPPRLPRPRPRPNHFPRP it was -0.0479.
In the case of RRIRCRPPRLPRPRPRPNRWPRP it was 0.0409.
With RRIRERPPRLPRPRPRPQTGPRP, the “shrunken log2 fold change” value is -0.0945.
